Measured values from article PMC3923242, “New function for Escherichia coli xanthosine phophorylase (xapA): genetic and biochemical evidences on its participation in NAD^+ salvage from nicotinamide” (BMC Microbiology, 2014).

Substrate: NC(=O)c1cccnc1
Assay: purified protein
Format: biochemical, Escherichia coli
Details: 20 mM ribose-1-phosphate, 50 mM MES pH 6.0, 37 °C, 30 min, 0.1 mg/ml xapA, NR synthesis direction

B1: xanthosine phosphorylase (xapA; purine nucleoside phosphorylase II, PNP-II) (Escherichia coli K-12) (protein)
chain: MSQVQFSHNPLFCIDIIKTYKPDFTPRVAFILGSGLGALADQIENAVAISYEKLPGFPVSTVHGHAGELVLGHLQGVPVVCMKGRGHFYEGRGMTIMTDAIRTFKLLGCELLFCTNAAGSLRPEVGAGSLVALKDHINTMPGTPMVGLNDDRFGERFFSLANAYDAEYRALLQKVAKEEGFPLTEGVFVSYPGPNFETAAEIRMMQIIGGDVVGMSVVPEVISARHCDLKVVAVSAITNMAEGLSDVKLSHAQTLAAAELSKQNFINLICGFLRKIA
notes: ORF from E. coli genomic DNA in pET28a (EcoRI/HindIII), expressed in E. coli Rosetta (DE3), Ni-NTA purified (His-tag), tag removal not described
  Km: 5.81 mM
